Measurements reported in article PMC8894450, “Structural basis of leukotriene B4 receptor 1 activation” (Nature Communications, 2022).

Target: T1, human dominant-negative Gαi1 (S47N, G203A, A326S and E245A) (human, UniProt P63096 1-354, S47N | G203A | A326S | E245A)
T1 construct: The alpha-helical domain had no clear density in the map; also called Gα subunit; Gαi subunit; source: Sf9 cells co-infected with baculoviruses encoding each component; co-purified with the BLT1/Gi complex
Experiment: cryo-EM structure; single-particle cryo-EM of the LTB4-bound BLT1/Gi complex (with scFv16, NanoBiT tether); components co-expressed in Sf9, complex purified on amylose, TEV cut, gel filtration in 25 mM Hepes pH 7.5, 150 mM NaCl, LMNG/GDN/CHS; LTB4 300 nM throughout
Details: both partners purified

T1 sequence (P63096 whole entry S47N/G203A/E245A/A326S, the tested form may be a part): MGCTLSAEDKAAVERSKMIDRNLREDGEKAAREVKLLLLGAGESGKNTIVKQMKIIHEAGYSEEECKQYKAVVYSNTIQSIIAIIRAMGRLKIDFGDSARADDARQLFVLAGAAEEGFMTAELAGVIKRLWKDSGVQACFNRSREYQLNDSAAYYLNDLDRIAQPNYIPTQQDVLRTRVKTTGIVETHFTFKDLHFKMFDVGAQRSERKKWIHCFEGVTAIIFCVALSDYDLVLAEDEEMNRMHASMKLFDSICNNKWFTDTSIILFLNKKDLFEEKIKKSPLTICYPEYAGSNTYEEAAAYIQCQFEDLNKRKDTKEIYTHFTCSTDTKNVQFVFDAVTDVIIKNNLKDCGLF

B1: engineered human leukotriene B4 receptor 1 (BLT1) with 4 thermostabilizing mutations and a C-terminal LgBiT fusion (receptor)
chain: MNTTSSAAPPSLGVEFISLLAIILLSVALAVGLPGNSFVVWSILKRMQKRSVTALMVLNLALADLAVLLTAPFFLHFLAQGTWSFGLAGCRLCHYVCGVSMYASVWLITAMSLDRSLAVARPFVSQKLRTKAMARRVLAGIWVLSFLLATPVLAYRTVVPWKTNMSLCFPRYPSEGHRAFHLIFEAVTGFLLPFLIVVASYSDIGRRLQARRFRRSRRTGRLVVLIILTFAAFWLPYHVVNLAEAGRALAGQAAGLGLVGKRLSLARNVLIALAFLSSSVNPVLYAFAGGGLLRSAGVGFVAKLLEGTGAEASSTRRGGSLGQTARSGPAALEPGPSESLTASSPLKLNELN
notes: human leukotriene B4 receptor 1 (BLT1), codon-optimized gene; model lacks the first 14 residues and the C-tail after residue 301; A TEV site stands between LgBiT and 2x MBP; LgBiT on the receptor pairs with HiBiT on Gbeta1 (NanoBiT tethering strategy); also called BLT1R; the receptor; source: Sf9 cells co-infected with baculoviruses encoding each component; complex purified (amylose column, TEV …)
- binding result: binds
